# From patent publication US12303551B2, “Cellular immunotherapy compositions and uses thereof” (CERO THERPEUTICS HOLDINGS, INC., priority 2018, dated 2025)
# B1: HPV E7 specific TCR: HPV16 E7 specific TCR (see WO2015/184228), TCRβ and TCRα chains joined by P2A; SEQ ID NO:84; expressed in CD8+ T cells (protein)
# chain: MAPGLLCWALLCLLGAGLVDAGVTQSPTHLIKTRGQQVTLRCSPKSGHDTVSWYQQALGQGPQFIFQYYEEEERQRGNFPDRFSGHQFPNYSSELNVNALLLGDSALYLCASSLGWRGGRYNEQFFGPGTRLTVLEDLRNVTPPKVSLFEPSKAEIANKQKATLVCLARGFFPDHVELSWWVNGKEVHSGVCTDPQAYKESNYSYCLSSRLRVSATFWHNPRNHFRCQVQFHGLSEEDKWPEGSPKPVTQNISAEAWGRADCGITSASYQQGVLSATILYEILLGKATLYAVLVSTLVVMAMVKRKNSRAKRSGSGATNFSLLKQAGDVEENPGPMWGVFLLYVSMKMGGTTGQNIDQPTEMTATEGAIVQINCTYQTSGFNGLFWYQQHAGEAPTFLSYNVLDGLEEKGRFSSFLSRSKGYSYLLLKELQMKDSASYLCASVDGNNRLAFGKGNQVVVIPNIQNPEPAVYQLKDPRSQDSTLCLFTDFDSQINVPKTMESGTFITDKCVLDMKAMDSKSNGAIAWSNQTSFTCQDIFKETNATYPSSDVPCDATLTEKSFETDMNLNFQNLLVIVLRILLLKVAGFNLLMTLRLWSS
# modifications: HPV16 E7 TCRbeta chain-P2A-TCRalpha chain
# notes: HPV16 E7 specific TCR (see WO2015/184228), TCRβ and TCRα chains joined by P2A; expressed in CD8+ T cells
# B2: CER126: Chimeric engulfment receptor: Tim4 binding, Tim4 transmembrane, TLR2 and TRAF2 signaling; SEQ ID NO: 169 (protein)
# chain: MSKGLLLLWLVTELWWLYLTPAASEDTIIGFLGQPVTLPCHYLSWSQSRNSMCWGKGSCPNSKCNAELLRTDGTRIISRKSTKYTLLGKVQFGEVSLTISNTNRGDSGVYCCRIEVPGWFNDVKKNVRLELRRATTTKKPTTTTRPTTTPYVTTTTPELLPTTVMTTSVLPTTTPPQTLATTAFSTAVTTCPSTTPGSFSQETTKGSAFTTESETLPASNHSQRSMMTISTDIAVLRPTGSNPGILPSTSQLTTQKTTLTTSESLQKTTKSHQINSRQTILIIACCVGFVLMVLLFLAFLHRFHGLWYMKMMWAWLQAKRKPRKAPSRNICYDAFVSYSERDAYWVENLMVQELENFNPPFKLCLHKRDFIPGKWIIDNIIDSIEKSHKTVFVLSENFVKSEWCKYELDFSHFRLFDENNDAAILILLEPIEKKAIPQRFCKLRKIMNTKTYLEWPMDEAQREGFWVNLRAAIKSMAAASVTPPGSLELLQPGFSKTLLGTKLEAKYLCSACRNVLRRPFQAQCGHRYCSFCLASILSSGPQNCAACVHEGIYEEGISILESSSAFPDNAARREVESLPAVCPSDGCTWKGTLKEYESCHEGRCPLMLTECPACKGLVRLGEKERHLEHECPERSLSCRHCRAPCCGADVKAHHEVCPKFPLTCDGCGKKKIPREKFQDHVKTCGKCRVPCRFHAIGCLETVEGEKQQEHEVQWLREHLAMLLSSVLEAKPLLGDQSHAGSELLQRCESLEKKTATFENIVCVLNREVERVAMTAEAC
# modifications: CER126, amino acids 1-22 are signal peptide
# B3: hCER122: human CER122 construct: Tim4 binding domain, Tim4 transmembrane domain, TLR2 and Dap12 engulfment signaling domains; SEQ ID NO:179 (protein)
# chain: ETVVTEVLGHRVTLPCLYSSWSHNSNSMCWGKDQCPYSGCKEALIRTDGMRVTSRKSAKYRLQGTIPRGDVSLTILNPSESDSGVYCCRIEVPGWFNDVKINVRLNLQRASTTTHRTATTTTRRTTTTSPTTTRQMTTTPAALPTTVVTTPDLTTGTPLQMTTIAVFTTANTCLSLTPSTLPEEATGLLTPEPSKEGPILTAESETVLPSDSWSSVESTSADTVLLTSKESKVWDLPSTSHVSMWKTSDSVSSPQPGASDTAVPEQNKTTKTGQMDGIPMSMKNEMPISQLLMIIAPSLGFVLFALFVAFLHRFHGLWYMKMMWAWLQAKRKPRKAPSRNICYDAFVSYSERDAYWVENLMVQELENFNPPFKLCLHKRDFIPGKWIIDNIIDSIEKSHKTVFVLSENFVKSEWCKYELDFSHFRLFDENNDAAILILLEPIEKKAIPQRFCKLRKIMNTKTYLEWPMDEAQREGFWVNLRAAIKSYFLGRLVPRGRGAAEAATRKQRITETESPYQELQGQRSDVYSDLNTQRPYYK
# modifications: hCER122
# Key:
# [1] = tested on: HPV+ SCC152/luceriferase+ cells; test: SCC152/luciferase xenograft in NSG mice, bioluminescence imaging; type: in vivo; details: E7 TCR CD8+ T cells + mock transduced CD4+ T cells; compared to untreated controls
# Experimental: HPV+ SCC152 engrafted NSG mice were treated with HPV E7 TCR modified CD8+ T cells+CD4+ T cells (mock transduced), HPV E7 TCR modified CD8+ T cells+hCER104 modified CD4+ T cells, or untreated. FIG. 74B is a graph of mean values of bioluminescence signal intensities obtained for treatment group.
# HPV+ SCC152/luceriferase^+ cells were engrafted in NSG mice. Once tumors were established, mice were treated with HPV E7 specific TCR (SEQ ID NO:84) modified CD8+ T cells+mock transduced CD4+ T cells, HPV E7 specific TCR modified CD8+ T cells+hCER104 (SEQ ID NO:176) modified CD4+ T cells, or untreated (n=5 per treatment group). HPV E7 CD8+ T cells and hCER104 CD4+ T cells were administered at a 1:1 ratio. Tumor volume was measured over time by bioluminescence imaging (see, FIGS. 74A-74B).
# SCC152 cells = test: Magnitude breadth analysis of phagocytosis by CER type (pHrodo red / CELLTRACE violet microscopy); type: cell-based; details: CD4+ T cells, pHrodo red stained SCC152
# Experimental: Top image is an enlargement of a cell in the lower left image showing a SCC152 cell engulfed by CER126-transduced CD4+ T cell. […] White arrow indicates CD8+ T cell transduced with E7-specific TCR and that is pHrodo Red negative (lower left panel of FIG. 60B). Software rendition of phagocytosis (lower right panel of FIG. 60B).
# Various CER-modified CD4+ T cells were also evaluated for breadth of response to determine whether a particular CER confers a broad phagocytic response of low magnitude (e.g., 10% engulfment in 90% of cells) or a less frequent but strong phagocytic response (e.g., 90% engulfment in 10% of cells) in the host cells. CD8+ T cells were transduced with HPV16 E7 specific TCR as described in Example 1. CD4+ T cells were transduced with lentiviral vectors comprising a CER21, CER27, CER104, CER116, or CER117 nucleic acid. Mock-transduced (vector alone) CD4+ T cell were used as control. CD4+/CER+ and CD8+/E7 TCR+ T cells were stained with CELLTRACE violet. HPV16 E7+ head and neck squamous cell carcinoma cells (SCC152) were stained with pHrodo red. HPV16 E7 TCR transduced CD8+ T cells and selected CER transduced CD4+ T cells were mixed at a 1:1 ratio and co-cultured with SCC152 cells at a 1:1 ratio for 8 hours. Phagocytosis of target SCC152 cells by CER-transduced CD4+ T cells was analyzed by fluorescence microscopy. […] The horizontal axis represents the % area of CER-transduced CD4+ T cells having engulfment or % area of the CER-transduced CD4+ T cells taken up by target SCC152 cells. This measure was rarely above 40% across CER types tested. The vertical axis represents the proportion of CER-transduced CD4+ T cells that were phagocytic. For CER104, about 20% of CER104-transduced CD4+ T cells have more than 10% engulfment. For CER117-transduced CD4+ T cells, less than 10% have more than 10% engulfment.
# [2] = tested on: HCC827 adenocarcinoma cells; test: HCC827 xenograft in NSG mice with osimertinib, bioluminescence imaging and immunofluorescence; type: in vivo
# Experimental: Growth of HCC827/luceriferase^+ cells in NSG mice upon adoptive transfer of purified hCER122 modified CD4+ T cells or hCER122 modified CD+ T cells with concomitant targeted inhibitor therapy was measured by bioluminescence imaging. Data represents mean values (n=5 mice/treatment group).
# Tumor specimens were stained with anti-EGFR (tumor antigen), anti-CD4, anti-PD1, and DAPI counter-stain (left image).
# CD3+ or CD4+ T cells were purified from PBMCs, activated, and transduced with lentiviral vector comprising hCER122 nucleic acid. hCER122 is a human CER122 construct comprising a Tim4 binding domain, a Tim4 transmembrane domain, TLR2 engulfment signaling domain, and Dap12 engulfment signaling domain and comprises an amino acid sequence of SEQ ID NO:179. Transduced T cells were expanded. hCER122 modified CD3+ T cells (2.5×10^6 or 5×10^6) or hCER122 modified CD4+ T cells (2.5×10^6 or 5×10^6) were infused into NSG mice engrafted with HCC827 adenocarcinoma cells (2 million/mouse). HCC827 xenograft mice also received 1 mg/kg osimertinib post-engraftment. […] Microscopy images of immunofluorescence stained tumor cells from HCC827 xenograft model at day 16. Tumor specimens were stained with anti-EGFR (tumor antigen), anti-CD4, anti-PD1, and DAPI counter-stain.
molecule,measurement,setting,value
B1,anti-tumor response (bioluminescence),[1],anti-tumor response
B2,engulfment of SCC152 target cells seen in fluorescent micrographs,SCC152 cells,engulfed
B3,anti-tumor response (bioluminescence),"[2]; CER-modified CD3+ and CD4+ T cells plus 1 mg/kg osimertinib, compared to osimertinib alone",enhanced anti-tumor responses
same,tumor elimination (bioluminescence),[2]; CER-modified CD4+ T cells plus 1 mg/kg osimertinib,eliminated tumors
same,"T cell infiltration of tumor, immunofluorescence staining","[2]; day 16, anti-EGFR, anti-CD4, anti-PD1, DAPI",infiltration of PD1+CD4+ T cells (functionally active) into tumor stroma
